The source of these data is paper PMC6467989, “RNA recognition motifs of disease-linked RNA-binding proteins contribute to amyloid formation” (Scientific Reports, 2019).

Data set [1] deals with the molecule itself. Briefly: X-ray fibre diffraction; fibrils grown by agitation at room temperature for two days (RRMs 50 μM in 10 mM phosphate pH 7.5, 50 mM NaCl; peptides in water), also seen by negative-stain TEM; fibrils centrifuged, washed, dried, diffraction at room temperature; self-assembly into amyloid fibrils.
Data set [2] concerns the molecule itself. Briefly: ATR-FTIR spectroscopy; fresh protein or peptide against freshly prepared fibrils washed and re-suspended in D2O; amide I band 1600–1700 cm^-1; self-assembly into amyloid fibrils of parallel β-sheets.
Data set [3] concerns the molecule itself. As to the kind of experiment: Thioflavin T fluorescence; fresh protein or fibrillar solutions mixed with ThT (final 20 μM), 10 mM phosphate buffer, excited at 442 nm, emission 460–600 nm; self-assembly into amyloid-like aggregates.

B1: TDP-43 RRM1 β2b peptide (peptide)
peptide: GEVLMVQVKK
notes: TDP-43, human, β2 strand of RRM1, residues 128-137; source: synthetic peptide (synthesized by Mission Biotech)
On to B1, for which the binding result in data set [1] is on record as “binds”.

B2: FUS RRM β2 peptide (peptide)
peptide: MINLYT
notes: FUS, human, β2 strand of the RRM, residues 321-326; source: synthetic peptide (synthesized by Mission Biotech)
Turning to B2, the binding result in data set [2] is reported as “binds”.

B3: TDP-43 RRM1 β2a peptide (peptide)
peptide: VLMVQVKK
notes: TDP-43, human, β2 strand of RRM1, residues 130-137; source: synthetic peptide (synthesized by Mission Biotech)
Take B3: the binding result in data set [1] is “binds”.

B4: FUS RRM (residues 281–375) (domain or fragment, human, UniProt P35637 281-375, looked up)
chain: NSDNNTIFVQGLGENVTIESVADYFKQIGIIKTNKKTGQPMINLYTDRETGKLKGEATVSFDDPPSAKAAIDWFDGKEFSGNPIKVSFATRRADF
notes: Fused in Sarcoma (FUS), human, RNA recognition motif, residues 281-375; Vector PQE30 or pET28a; also called Fused in Sarcoma RRM; source: E. coli (M15 or BL21-CodonPlus (DE3) RIPL), purified (HisTrap FF, HiTrap Heparin HP, Superdex 75)
For B4, the binding result in data set [3] is “binds”.
